Here are results for 3 molecules from patent US20200277374A1 (Alector, published 2020).

Test [1] addresses T1, R124A (human, UniProt Q9Y286).
T1 construct: clone of the siglec-7 mutation library; also called Siglec-7 R124A
The test can be described thus: flow cytometry on HEK-293T cells expressing the mutant, mock signal subtracted. On the procedure: (§1) Shotgun mutagenesis epitope mapping of anti-siglec-7 antibodies was performed using an alanine-scanning library for the siglec-7 protein. […] Each of residues 19 to 353 was mutated, representing the siglec-7 extracellular domain, most to alanine, while alanine codons were mutated to serine. In total, 335 siglec-7 mutant expression constructs were generated, sequences confirmed, and arrayed into a 384-well plate, one mutant per well.
(§2) Cells were then incubated with MAbs diluted in 10% o normal goat serum (NGS) (Sigma-Aldrich, St. Louis, Mo.). Prior to library screening, primary MAb concentrations were determined using an independent immunofluorescence titration curve against cells expressing wild-type siglec-7 to ensure that signals were within the linear range of detection. MAbs were detected using 3.75 μg/ml AlexaFluor488-conjugated secondary antibody (Jackson immunoResearch Laboratories, Westgrove, Pa.) in 10% NGS. […] Mean cellular fluorescence was detected using the Intellicyt high throughput flow cytometer (HTFC, Intellicyt, Albuquerque, N. Mex.). MAb reactivities against each mutant clone were calculated relative to wild-type siglec-7 protein reactivity by subtracting the signal from mock-transfected controls, and normalizing to the signal from wild-type siglec-7-transfected controls.
For orientation: A flow cytometer gives signals particle by particle.

The target in a further test is T2, S47A (human, UniProt Q9Y286).
T2 construct: clone of the siglec-7 mutation library; also called Siglec-7 S47A
Kind of test: flow cytometry on HEK-293T cells expressing the mutant; mean % of wild-type signal (range of duplicates). On the procedure: as §1
(§3) Cells were then incubated with MAbs diluted in 10% o normal goat serum (NGS) (Sigma-Aldrich, St. Louis, Mo.). Prior to library screening, primary MAb concentrations were determined using an independent immunofluorescence titration curve against cells expressing wild-type siglec-7 to ensure that signals were within the linear range of detection. MAbs were detected using 3.75 μg/ml AlexaFluor488-conjugated secondary antibody (Jackson immunoResearch Laboratories, Westgrove, Pa.) in 10% NGS. Cells were washed twice with PBS−/− and resuspended in Cellstripper (Cellgro, Manassas, Va.) with 0.1% BSA (Sigma-Aldrich, St. Louis, Mo.). Mean cellular fluorescence was detected using the Intellicyt high throughput flow cytometer (HTFC, Intellicyt, Albuquerque, N. Mex.). MAb reactivities against each mutant clone were calculated relative to wild-type siglec-7 protein reactivity by subtracting the signal from mock-transfected controls, and normalizing to the signal from wild-type siglec-7-transfected controls.

The target of test [2] is T3, T107A (human, UniProt Q9Y286).
T3 construct: clone of the siglec-7 mutation library; also called Siglec-7 T107A
Described as above. On the procedure: as §1, §3

A further test has as its target T4, F48A (human, UniProt Q9Y286).
T4 construct: clone of the siglec-7 mutation library; also called Siglec-7 F48A
Described as above. Here is the method:
as §1, §3

In the next test the target is T5, Q31A (human, UniProt Q9Y286).
T5 construct: clone of the siglec-7 mutation library; also called Siglec-7 Q31A
Described as above. On the procedure:
as §1, §3

The next test addresses T6, M185A (human, UniProt Q9Y286).
T6 construct: clone of the siglec-7 mutation library; also called Siglec-7 M185A
The test is described as above. On the procedure:
as §1, §3

Another test addresses T7, K104A (human, UniProt Q9Y286).
T7 construct: clone of the siglec-7 mutation library; also called Siglec-7 K104A
The test is described as above. On the procedure:
as §1, §3

For another test, the target named is T8, R45A (human, UniProt Q9Y286).
T8 construct: clone of the siglec-7 mutation library; also called Siglec-7 R45A
The test is described as above. On the procedure:
as §1, §3

The next test concerns the target T9, V44A (human, UniProt Q9Y286).
T9 construct: clone of the siglec-7 mutation library; also called Siglec-7 V44A
The test is described as above. On the procedure:
as §1, §3

Another test deals with T10, M30A (human, UniProt Q9Y286).
T10 construct: clone of the siglec-7 mutation library; also called Siglec-7 M30A
The description is as above. On the procedure:
as §1, §3

Another test concerns the target T11, I72A (human, UniProt Q9Y286).
T11 construct: clone of the siglec-7 mutation library; also called Siglec-7 I72A
The test is described as above. Here is the method: as §1, §3

For the next test, the target named is T12, W74A (human, UniProt Q9Y286).
T12 construct: clone of the siglec-7 mutation library; also called Siglec-7 W74A
Described as above. On the procedure: as §1, §3

In test [3] the target is T1, R124A. The test is described as above. Here is the method: as §1, §3
The target of the next test is T13, Y50A (human, UniProt Q9Y286).
T13 construct: clone of the siglec-7 mutation library; also called Siglec-7 Y50A
The description is as above. On the procedure: as §1, §3

The next test has as its target T14, N81A (human, UniProt Q9Y286).
T14 construct: clone of the siglec-7 mutation library; also called Siglec-7 N81A
The test is described as above. Here is the method:
as §1, §3

For a further test, the target named is Y50A (human) (UniProt Q9Y286). The description is as above.
A further test concerns the target F48A (human) (UniProt Q9Y286). Described as above.
The next test addresses V44A (human) (UniProt Q9Y286). The test is described as above.
The target of another test is M30A (human) (UniProt Q9Y286). The description is as above.
The target of the next test is T103A (human) (UniProt Q9Y286). The test is described as above.
Test [4] addresses T3, T107A. The test can be described thus: flow cytometry on HEK-293T cells expressing the mutant, mock signal subtracted. On the procedure: as §1, §2
The target of test [5] is T15, Histidine-tagged human Siglec-7 (NovoProtein) (human, UniProt Q9Y286 19-357, limits assumed).
T15 construct: Bought protein; also called purified Siglec-7-his tagged protein; not shown: histidine tag
The test can be described thus: SPR (Biacore T200), antibody captured on anti-mouse IgG, 5 nM Siglec-7-his flowed over, single-concentration 1:1 fit, 25 C. Here is the method: (§4) SPR data was collected at a rate of 10 Hz at 25′ C on a BiaCore T200 instrument. Data analysis was performed using BiaCore T200 Evaluation Software, version 2.0. HBS-EP+ (100 mM HEPES, 1.5 M NaCl, 30 mM EDTA, 0.5% v/v Surfactant P20, pH 7.4) was used as running buffer and for preparing reagents.
(§5) Mouse-derived antibodies (25 nM) against Siglec-7 were captured (60 s contact time, 30 μL/min flow rate, 0 s stabilization time) on a CM5 sensor chip (GE Healthcare) immobilized with anti-mouse IgG. Histidine-tagged human Siglec-7 (NovoProtein) was then flowed over the captured anti-Siglec-7 surface (120 s contact time, 30 μL/min flow rate, 300 s dissociation time). Concentration of antigen ranged from 5 nM to 100 nM, depending on information obtained from an initial screen. Duplicate single-concentration trials were performed and bracketed by a blank (0 nM antigen) sample. The chip surface was regenerated in between cycles using 10 mM glycine-HCl, pH1.7 (60 s contact time, 30 μL/min flow rate, 60 s stabilization time). The resulting SPR signal was obtained as the difference in response from measurements performed on a blank flow cell.
(§6) Affinity constants (KD) were calculated from the ratio kd/kₐ. For one antibody (clone 1E8), we validated the single-concentration analysis with a multiple-concentration approach (five concentrations of antigen used, plus one blank).

For test [6], the target named is T16, human Siglec-7 expressed on human cells (primary monocytes, dendritic cells, macrophages, NK cells, … (human, UniProt Q9Y286 19-467)). The test can be described thus: cell-based or functional assay.
In test [7] the target is T16, human Siglec-7 expressed on human cells …. Kind of test: FACS, human primary dendritic cells, 10 ug/ml mAb.
Test [8] has the same target. The test can be described thus: FACS, human primary monocytes, 10 ug/ml mAb.
Test [9] concerns the target T15, Histidine-tagged human Siglec-7 …. The test can be described thus: SPR (BiaCore T200, 25 C), antibody captured on anti-mouse IgG, Siglec-7-His 5 nM, single-concentration kinetics. Here is the method: as §4, §5, §6
(In SPR one partner is held on a chip, and binding of the other changes the refractive index at the surface.)

The target of test [10] is T16, human Siglec-7 expressed on human cells …. Kind of test: FACS, human primary macrophages, 10 ug/ml mAb.
Test [11] has the same target. Kind of test: cell-based or functional assay. The source holds these as a separate data set.
The target of test [12] is T17, Siglec-7-Fc (plate immobilized) (human, UniProt Q9Y286 19-357, limits assumed).
T17 construct: also called Siglec-7-Fc protein; immobilized Siglec-7; not shown: Fc part
The test can be described thus: RBC solid adhesion assay, plate-coated Siglec-7-Fc, antibody 0.5 or 1.0 ug/ml; % of RBC binding without antibody. The gist of the method:
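Plates coated overnight at RT with 5 μg/ml Siglec-7-Fc and blocked in PBS with BSA and 1 mM CaCl₂. Antibody (0.5 or 1.0 μg/ml) bound 1 h at RT, then RBCs (3.0×10⁶ cells/ml) added for 1 h at RT. Bound RBCs lysed and detected by peroxidase at 450 nm, expressed as % of binding without antibody.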

T1 sequence (Q9Y286 19-467 R124A limits assumed): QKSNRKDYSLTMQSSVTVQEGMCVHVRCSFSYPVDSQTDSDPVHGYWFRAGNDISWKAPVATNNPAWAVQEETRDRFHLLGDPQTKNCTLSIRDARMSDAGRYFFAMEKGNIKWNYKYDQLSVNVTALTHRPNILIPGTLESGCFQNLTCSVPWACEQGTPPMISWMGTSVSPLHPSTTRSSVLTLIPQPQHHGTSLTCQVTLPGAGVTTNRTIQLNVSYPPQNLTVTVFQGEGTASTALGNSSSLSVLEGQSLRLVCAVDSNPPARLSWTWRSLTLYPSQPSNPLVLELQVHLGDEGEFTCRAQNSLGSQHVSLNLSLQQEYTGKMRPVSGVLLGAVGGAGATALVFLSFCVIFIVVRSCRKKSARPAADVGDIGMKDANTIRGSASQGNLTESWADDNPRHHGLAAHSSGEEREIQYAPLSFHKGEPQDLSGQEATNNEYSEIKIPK
T3 sequence (Q9Y286 19-467 T107A limits assumed): as the sequence (Q9Y286 19-467 R124A limits assumed) above, with T89A, A106R counted along it
T16 sequence (Q9Y286 19-467): as the sequence (Q9Y286 19-467 R124A limits assumed) above, with A106R counted along it
T11 sequence (Q9Y286 19-467 I72A limits assumed): as the sequence (Q9Y286 19-467 R124A limits assumed) above, with I54A, A106R counted along it
T12 sequence (Q9Y286 19-467 W74A limits assumed): as the sequence (Q9Y286 19-467 R124A limits assumed) above, with W56A, A106R counted along it
T2 sequence (Q9Y286 19-467 S47A limits assumed): as the sequence (Q9Y286 19-467 R124A limits assumed) above, with S29A, A106R counted along it
T5 sequence (Q9Y286 19-467 Q31A limits assumed): as the sequence (Q9Y286 19-467 R124A limits assumed) above, with Q13A, A106R counted along it
T8 sequence (Q9Y286 19-467 R45A limits assumed): as the sequence (Q9Y286 19-467 R124A limits assumed) above, with R27A, A106R counted along it
T15 sequence (Q9Y286 19-357 limits assumed): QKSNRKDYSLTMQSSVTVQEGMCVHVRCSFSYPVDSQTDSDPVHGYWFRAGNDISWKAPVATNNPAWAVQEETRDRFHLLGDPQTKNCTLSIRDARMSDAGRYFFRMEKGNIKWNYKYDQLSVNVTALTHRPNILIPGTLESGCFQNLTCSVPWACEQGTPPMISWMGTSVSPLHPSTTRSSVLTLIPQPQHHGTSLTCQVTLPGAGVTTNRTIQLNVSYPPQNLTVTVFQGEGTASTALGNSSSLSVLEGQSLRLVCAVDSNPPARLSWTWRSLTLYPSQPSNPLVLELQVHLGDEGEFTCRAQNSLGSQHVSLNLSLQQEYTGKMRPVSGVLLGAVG
T14 sequence (Q9Y286 19-467 N81A limits assumed): as the sequence (Q9Y286 19-467 R124A limits assumed) above, with N63A, A106R counted along it
T103A (human), sequence (Q9Y286 19-467 T103A limits assumed): as the sequence (Q9Y286 19-467 R124A limits assumed) above, with T85A, A106R counted along it
T13 sequence (Q9Y286 19-467 Y50A limits assumed): as the sequence (Q9Y286 19-467 R124A limits assumed) above, with Y32A, A106R counted along it
Y50A (human), sequence (Q9Y286 19-467 Y50A limits assumed): as the sequence (Q9Y286 19-467 R124A limits assumed) above, with Y32A, A106R counted along it
V44A (human), sequence (Q9Y286 19-467 V44A limits assumed): as the sequence (Q9Y286 19-467 R124A limits assumed) above, with V26A, A106R counted along it
T9 sequence (Q9Y286 19-467 V44A limits assumed): as the sequence (Q9Y286 19-467 R124A limits assumed) above, with V26A, A106R counted along it
T7 sequence (Q9Y286 19-467 K104A limits assumed): as the sequence (Q9Y286 19-467 R124A limits assumed) above, with K86A, A106R counted along it
T10 sequence (Q9Y286 19-467 M30A limits assumed): as the sequence (Q9Y286 19-467 R124A limits assumed) above, with M12A, A106R counted along it
M30A (human), sequence (Q9Y286 19-467 M30A limits assumed): as the sequence (Q9Y286 19-467 R124A limits assumed) above, with M12A, A106R counted along it
F48A (human), sequence (Q9Y286 19-467 F48A limits assumed): as the sequence (Q9Y286 19-467 R124A limits assumed) above, with F30A, A106R counted along it
T4 sequence (Q9Y286 19-467 F48A limits assumed): as the sequence (Q9Y286 19-467 R124A limits assumed) above, with F30A, A106R counted along it
T17 sequence (Q9Y286 19-357 limits assumed): as the sequence (Q9Y286 19-357 limits assumed) above
T6 sequence (Q9Y286 19-467 M185A limits assumed): as the sequence (Q9Y286 19-467 R124A limits assumed) above, with A106R, M167A counted along it

B1: 4E3 Fab (Fab, V domains shown)
VH: EVQLVESGGALVKPGGSLKISCAVSGFIFSNYDMSWVRQNPEKRLEWVATISSGGGYTYYPDSVKGRFTISRDNAKNALYLQMSSLRSEDTALYYCTRHGYGNYDWYFDVWGAGATVTVSS
VL: QIVLTQSPAILSASPGEKVTMTCSANSSFTYMYWYQQKPGSSPRLLIFDTSNLASGVPIRFSGSGSGTSYSLTISRMEAEDTATYYCQQWSSSPLTFGAGTKLELK
As for B1, in the test with R124A [1], the binding result was “no binding”. Also, the “Binding Reactivity (% WT)” value with S47A was 103 % WT; with T107A [2], 124 % WT; in the test with F48A, 146 % WT; with Q31A, 112 % WT; with M185A, 91.6 % WT; with K104A it was 115 % WT. The “Binding Reactivity (% WT)” value with R45A was 129 % WT; with V44A, 115 % WT; in the test with M30A, 123 % WT; with I72A, 26.5 % WT; in the test with W74A it was 25.7 % WT; with R124A [3] it was 1 % WT. The “Binding Reactivity (% WT)” value was 139 % WT in the test with Y50A and 22 % WT with N81A.

B2: 10B5 Fab (Fab, V domains shown)
VH: QVHLQQSGPELVKPGASVKISCKASGYAFTNCWMNWVRQRPGKGLDWIGRIFPGNGHTNYSGKFKDKATLTEDKSSSTAYMQLSSLTSEDSAVYFCARDYSDYYFDYWGQGTTLTVSS
VL: DVQMTQTTSSLSASLGDRVTISCRASQDINTYLNWYQQKPDGTVKLLIYYTSRLHSGVPSRFSGSGSGTDYSLTISNLEQEDIATYFCQQGNTLPWTFGGGTKLEIK
Regarding B2, the Binding Reactivity (% WT) with Y50A (human) worked out at 18.2 % WT; with F48A (human), 13.9 % WT; in the test with V44A (human), 13.3 % WT; with M30A (human), 20.1 % WT; with T103A (human), 6.3 % WT; in the test with S47A it was 1.5 % WT. For the same molecule, the “Binding Reactivity (% WT)” value with T107A [2] was 0.4 % WT; in the test with Q31A, 18.2 % WT; with R45A it was 1.6 % WT; with I72A, 92.8 % WT; in the test with W74A, 79.8 % WT; with R124A [3], 81.1 % WT. For the same molecule, in the test with N81A, the “Binding Reactivity (% WT)” value stood at 138 % WT. The binding result with T107A [4] is reported as “no binding”.

B3: anti-Siglec-7 antibody 1E8 (antibody, V domains shown)
VH: QVQLQQSGAELVRPGASVKLSCSASGFNIKGSLLHWIKQRPLQGLEWIGWIDPEDGETRFDPKFQDKAFLTADTSSTTAYLQLSSLTSEDTAIYYCARTEYSNPAWFAYWGQGTLVTVSA
VL: DIQMTQFPATLSVTPGDRVSLSCRASQSISDYLHWYQHKSHESPRLLIKYASQSISGIPSRFSGSGSGWDFTLSINSVEPEDVGIYYCQKGLNFPLTFGGGTKLEMK
What is called Kd is a measure of binding affinity in units of concentration. Low values mean higher affinity, high ones lower affinity. B3: the Kd in [5] worked out at 0.017 nM. Further, in test [6], the “Percent Siglec-7 Surface Expression, Macrophages” value came out at 9.1%; the “Percent Siglec-7 Surface Expression, Microglia” value is 41.3%; the “Percent Siglec-7 Surface Expression, NK cells” value amounted to 144%. In test [7], the “% Positive” value stood at 99.7% and the MFI is 2940. In addition, in [8], the “% Positive” value stood at 99.3% and the MFI amounted to 428. This molecule had a Kd in [9] of 0.017 nM. Besides, in test [10], the “% Positive” value was 99.5% and the MFI was found to be 5450. In addition, in test [11], the “Percent Siglec-7 Surface Expression, DCs” value was 23%; the “Percent Siglec-7 Surface Expression, Monocytes” value was 36.7%; the “Percent Siglec-7 Surface Expression, U937 cells” value worked out at 114%. Besides, the “Percent RBC Binding to Siglec-7” value in [12] was determined as 16.4%.
